The source of these data is patent publication US20240240160A1, “NOVEL OLIVETOL SYNTHASES FOR C[…]” (priority 2021, published 2024).

The labels stand for the following.
B1: XP_020704098.1: Type-III PKS enzyme from Dendrobium catenatum (protein, listed as Dendrobium catenatum)
chain: MPSLESIKKAPRADGFASILAIGRANPENFIEQSAYPDLFFRITNSEHLVDLKNKFKRICDKTAIRKRHFVWTEEFITANPCFSTFMDKSLNIRQEVAIREIPKLGAEAATKAIQEWGQPKSRITHLIFCTTSGMDLPGADYQLTQILGLNPNVERVMLYQQGCFAGGTTIRLAKCLAESRKGARVLVVCAETTTVLFRGPSEEHQDDLVTQALFADGASALIVGADPDEAADEHASFVIVSTSQVLLPDSAGAIGGHVSEGGLLATLHRDVPQIVSKNVGKCLEEAFTPLGISDWNSIFWVPHPGGRAILDQVEESVGLKPEKLFISRHVLAEYGNMSSVCVHFALDEMRKRSAKEGKATTGEGLEWGVLFGFGPGVTVETVILRSVPI
modifications: (1)..(390) XP_020704098.1
B2: AHH25569.1: Type-III PKS enzyme from Bletilla striata (protein, listed as Bletilla striata)
chain: MPSLDSIKKAPRADGIASILAIGRANPDNIIEQSAYPDFYFRVTNSEHLVDLKKKFQRICEKTAIRKRHFVWNEEFLTSNPSFSTFMDKSLYVRQEVAIREIPKLGAKAATKAIEDWGQPKSRISHLIFCTTSGMDLPGADYQLTQILGLNPNVERLMLYEQGCFAGGTTLRLAKCLAESRKGARVLVVCAETTTVLFRAPSEEHQDDLVTQALFADGASALIVGADPDEAADERASFVIVSTSQVLLPDTAGAIGGHVSEGGLLATLHRDVPQIVTKNVGKCLEEAFTPFGISDWNSIFWVPHPGGRAILDQVEERVGLKPEKLSVSRHVLAEYGNMSSVCVHFALDEMRKRSANEGKPTTGEGLEWGVLFGFGPGLTVETVVLRSVPL
modifications: (1)..(390) AHH25569.1
B3: AFU07718.1: Type-III PKS enzyme from Paphiopedilum micranthum (protein, listed as Paphiopedilum micranthum)
chain: MPGLENRKKVEAPIRAEGLATIMAIGRANPPNAMEQSTFPDFYFRVTNSEHLVGLKKKFQRICEKTAIRRRHFVWNEEILNANPCLRTHMEPSLNVRQKIAVAEIPKMGAEAASRAIEEWGQSKSRITHLIFCTTSGMDLPGADYQLTRILGLNPNVQRVMLYQQGCFAGGTVLRLAKCLAESQKGARVLVVCSETTAVLVRAPSEEYHDDLVTQALFADGASALIVGADPDEEAKERPIFTIVSTTQVILPDSDGAIGGHLGEGGLTATLHRDVPLIISKNVSKCLEEAFTPLGISDWNSIFWAPHPGGRAILDQVEERASLKPEKLWASRHVLTEYGNMSSVCVHFVLDEIRKRSAKEGKATTGEGFDWGVLFGFGPGLTVETVVLRSVPLN
modifications: (1)..(394) AFU07718.1
B4: XP_020591420.1: Type-III PKS enzyme from Phalaenopsis equestris (protein, listed as Phalaenopsis equestris)
chain: MPNMESIKKEDGLATIMAIGRALPPNSIDQNSFPDFYFRVHNSEHLMDLKNKFRRICERTAIRKRHFVWNEEVLKQNPCLRTFMEPSLNTRQEIVCSEIPKLGAEAARNAIREWGQPERSITHLIFCTTSGMNLPGADFEAAQILGLNHSVERVMLYQQGCFAGGTVLRLAKCLAESRRGARVLVICAESTTSLVRSPSREHQYDLIAQALFADGASALIIGTEPNAEAGERPIFSIFSTAQVTLPDSGDAIRGYLKEGGLIATLAKDVPLIISENIERCLQEAFGPLGISDWNSIFWAPHPGGRAILDGIEDKLGLKPEKLWAARHVLAEYGNMSSVCVHYILDEMRRRDVKNGKAPTGDGPEWGVLFGFGPGLTVETVVLRRLFL
modifications: (1)..(387) XP_020591420.1
B5: XP_020704102.1: Type-III PKS enzyme from Dendrobium catenatum (protein, listed as Dendrobium catenatum)
chain: MPSLESIKKAPRADGFASILAIGRANPENFIEQSAYPDLFFRITKSEHLVDLKNKFKRICDKTAIRKRHFVWTEEFITANPCFSTFMEKSLNIRQEVAIREIPKLGAEAAAKAIQEWGQPKSRITHLIFCTRSGMGLPGPDYQLTQILGLNPNVERVMIYQQGCFAGGTTLRLAKCLAESHKGARVLVVCAETSTVLFRAPSMEHQEDLVTQALFADGASALIVGADPDETADEHASFVIVSTSQVLLPESAGAIGGHVSEGGFLPMIHRDVPQIVSKNIGKCLEEAFTPLGIMDWNSIFWVPHPGGRAILDQLDERVGLKPEKLFISRHVLKEYGNMSSASVHFALDEMRKWSAKEGTTGEGLEWGVLFGFGPGVTVDTVVLRSVPI
modifications: (1)..(388) XP_020704102.1
B6: PKA53998.1: Type-III PKS enzyme from Apostasia shenzhenica (protein, listed as Apostasia shenzhenica)
chain: MPGLQIISKASSRAADGLAAILAIGRANPPNSMDQSSYPEFYFRVMDSDHLVDLKKKFQRICERTAIRKRHFVWNEELLRDNPCLRTFMDSSLNVRQKVAVAEIPKLGAAAAERAIEEWGQPRSGITHLIFCTTSGMDLPGADYQLTKILGLNADVQRVMLYQQGCFAGGTVLRLAKVLAESRKGARVLVVCAETTTVLIRAPSVEHQDDLVTQALFADGASALIVGADPVEEVNERPLFSIISASQVILPDSDGAIGGHLGEGGLTATLHRDVPLIISKNVSKCLEDAFSPLGISDWNSIFWAPHPGGRAILDQVEERVGLKPEKMWASRHVLAEYGNMSSVCVHFVLDEMRKRSAKEGKPTTGEGLEWGVLFGFGPGLTVETVVLRSHPIN
modifications: (1)..(393) PKA53998.1
B7: AAX54693.1: Type-III PKS enzyme from Phalaenopsis hybrid cultivar (protein)
chain: MPTIESIKKAPRAHGFASILAIGKANPENFIEQCHYPDFYFRVTSSEHLVDLKEKFQRMCDRTAIRKRHFVWNEDLLTANPCLRTYMDKSLNIRQEVAIREIPKLGAEAATKAIQEWGQPKSSITHLIFCTTSGMDLPGADFQLTQILGLNPNVERVMLYQQGCFAGGTTLRLAKCLAESREGARVLVVCAETTTVVFRAPSEEHQDDLVTQALFADGASAVIVGVDPNEAAHERASFIIVSASQVLLPDSAGAIGGHVSEGGLTATLHRDVPQIVSKNVGKCLEEAFTPFGISDWNSIFWVPHAGGRAILDQVEERVGLKPEKLSVSRHVLAEYGNMSSVCVHFALDEMRKKSAKEAKATTGEGLEWGVLFGFGPGLTVETVVLHSVPI
modifications: Phalaenopsis hybrid cultivar; (1)..(390) AAX54693.1
B8: AFU07719.1: Type-III PKS enzyme from Paphiopedilum purpuratum (protein, listed as Paphiopedilum purpuratum)
chain: MPGLENRKKVEAPKRAEGLATILAIGRANPPNDMEQSTFPDFYFRVTNSEHLVSLKKKFERICEKTAIRRRHFVWNEEILNANPCLRTHMEPSLNVRQKIAVAEIPKLGAEAASRAIEEWGQPKSHITHLIFCTTSGMDLPGADYKLTRILGLNPNVQRVMLYQQGCFAGGTVLRLAKCFAESQKGARVLVVCSETTTVLVRAPSEDYQDDLVTQALFADGASALIVGADPDEEAKEQPIFTIVSATQVILPDSDGAIGGHLGEGGLTATLHRDVPLIISKNVSKCLEEAFGPLGISDWNSIFWAPHPGGRAILDQVEERVGLKPEKLWASRHVLAEYGNMSSVCVHFVLDEIRKRSTKEGKTTTGEGFDWGVLFGFGPGLTVETVILRSVPLN
modifications: (1)..(394) AFU07719.1

The test system of one assay is E. coli derivative strain which overexpressed an acyl-CoA synthetase (fadD) gene and expressed an olivetolic acid cyclase (OAC) from Cannabis sativa. The assay can be described thus: OL, OLA and PDAL production in E. coli from plasmid-expressed Type-III PKS genes. In kind it is cell-based. Conditions: OL + OLA + PDAL; gene on plasmid. Here is the method:
To test olivetolic acid production in E. coli, strains comprising a putative OLS gene and an OAC gene from C. sativa were inoculated in multi-well plates containing LB supplemented with 1% glucose and appropriate concentrations of antibiotics. After 6 hours of cultivation at 32° C., the cells were transferred with a 10% inoculum to a P-limited seed medium (see Table 2) and cultivated for ˜18 hours at 32° ° C. to reach an OD of 2.0-4.0. The cultures were transferred with a 20% inoculum in a P-minimal medium (see Table 3) supplemented with 2% glucose and appropriate concentrations of antibiotics. After 3 hours of cultivation at 32° C., the culture was spiked with 4 mM hexanoic acid (˜OD 1.5-2.0). The resulting cultures were then harvested at either 3 hours or 21 hours post hexanoic acid spike; a final OD was taken. 300 μL of butyl acetate containing 500 mg/L undecanoic acid was added to each multi-well plate. The plates were then vortexed for 30 minutes at 1500 rpm and centrifuged for 10 minutes at 4500 rpm. 50 μL of organic layer was transferred to a 96-well plate and derivatized with 50 μL of N,O-Bis(trimethylsilyl)trifluoroacetamide (BSTFA). The plate was then incubated at room temperature for 2 hours to allow for complete derivatization. The samples were then run on GC-FID for analytical quantification of olivetolic acid (OLA), olivetol (OL), PDAL, and hexanoic acid.
Olivetol, PDAL, OLA, HTAL, CBGA and combinations thereof were analyzed by LCMS or LCMS/MS methods using C18 reversed phase chromatography coupled to either EXACTIVE™ (ThermoFisher) or QTRAP® 4500 (Sciex) mass spectrometers.
For reversed phase LCMS, compounds were identified by their LC retention times and MRM transitions specific to the compounds. LCMS/MS analysis was conducted on a Shimadzu UHPLC system coupled with AB Sciex QTRAP 4500 mass spectrometer. Agilent Eclipse XDB C18 column (4.6×3.0 mm, 1.8 μm) was used with a 1-min gradient elution at 1 mL/min using water containing 0.1% ammonia acetate as mobile phase A and 90% methanol containing 0.1% ammonia acetate as mobile phase B. The LC column temperature was maintained at 45° C. Negative ionization mode was used for all the analytes.
The genes for 20 Type-III PKS enzymes were codon optimized for E. coli and cloned under control of a constitutive promoter into an expression vector (p15a replicon, carbenicillin resistance marker). The 20 plasmids were transformed into an E. coli derivative strain which overexpressed an acyl-CoA synthetase (fadD) gene and expressed an olivetolic acid cyclase (OAC) from Cannabis sativa.
The in vivo assay procedure and analytical methods were performed as described above.
Regarding B1, the Total came to 1072 µM.

With B2, the Total amounted to 320 µM.

In the case of B3, the Total is 948 µM.

For the molecule B4, the Total was found to be 468 µM.

B5: the Total was found to be 148 µM.

Turning to B6, the Total amounted to 1005 µM.

B7: the Total stood at 1874 µM.

In the case of B8, the Total came to 1406 µM.

Staying with this assay, now noted: gene on plasmid.
For the molecule B7, the “levels of OLA relative to the E. coli strain with OLS from C. sativa” value is listed as “over two-fold”.

The assay is the same for the next values; noted with them: gene on plasmid, constitutive promoter; culture spiked with 4 mM hexanoic acid.
Take B1: the OL came to 432 µM, the OLA was found to be 390 µM and the PDAL was 250 µM.

With B2, the OL was found to be 93 µM, the OLA was 98 µM and the PDAL turned out to be 129 µM.

Take B3: the OL was found to be 159 µM, the OLA came out at 152 µM and the PDAL was found to be 638 µM.

For B4, the OL was 54 µM, the OLA was 36 µM and the PDAL came to 378 µM.

In the case of B5, the OL amounted to 26 µM, the OLA is 19 µM and the PDAL amounted to 102 µM.

As for B6, the OL was 268 µM, the OLA stood at 256 µM and the PDAL came to 481 µM.

Take B7: the OL turned out to be 606 µM, the OLA came out at 653 µM and the PDAL was 615 µM.

B8: the OL turned out to be 289 µM, the OLA worked out at 302 µM and the PDAL came to 815 µM.
